# Target: T1, Human CD4 on CD4+CD25+ regulatory T cells (human, UniProt P01730 26-458)
# T1 construct: CD4 on Tregs or T cells of healthy human donors
# Test: in vitro assay with CD4+CD25+ regulatory T cells (allogeneic mixed lymphocyte reaction); no separate binding assay described
# Description: CD4+ CD25+ regulatory T cells were freshly isolated from a first donor (donor A). PBMCs were obtained from EDTA-blood by density gradient centrifugation. […] Tregs were pre-incubated with or without plate-bound antibody for 2 days. The number and phenotype of Tregs was determined by six colour flow cytometry as previously described (Haas et al., 2007). Pre-incubated Tregs were transferred to responder T cells (second donor B) in the presence of T-cell depleted and irradiated PBMCs (first donor A). After stimulation, [³H] thymidine was added and proliferation of responder T cells was measured after five days.
row,binding result,Binder
1,no binding,"BT061 variant LC master HC Y105W (antibody, V domains shown, also called knockout mutant) VH: EEQLVESGGGLVKPGGSLRLSCAASGFSFSDCRMYWLRQAPGKGLEWIGVISVKSENYGANYAESVRGRFTISRDDSKNTVYLQMNSLKTEDTAVYYCSASYYRWDVGAWFAYWGQGTLVTVSS VL: DIVMTQSPDSLAVSLGERATINCRASKSVSTSGYSYIYWYQQKPGQPPKLLIYLASILESGVPDRFSGSGSGTDFTLTISSLQAEDVAVYYCQHSRELPWTFGQGTKVEIKR"

# Target: Human CD4 on CD4+CD25+ regulatory T cells of healthy donors (human, UniProt P01730 26-458)
# Test: cell-based or functional assay
% Inh1,% Inh2,% Inh3,Avg. % inhibition,Binder
12.1%,6.4%,19.3%,12.6%,"LC A55G HC R33K (antibody, V domains shown) VH: EEQLVESGGGLVKPGGSLRLSCAASGFSFSDCKMYWLRQAPGKGLEWIGVISVKSENYGANYAESVRGRFTISRDDSKNTVYLQMNSLKTEDTAVYYCSASYYRYDVGAWFAYWGQGTLVTVSS VL: DIVMTQSPDSLAVSLGERATINCRASKSVSTSGYSYIYWYQQKPGQPPKLLIYLGSILESGVPDRFSGSGSGTDFTLTISSLQAEDVAVYYCQHSRELPWTFGQGTKVEIKR"
9.2%,24.3%,24.6%,19.4%,"LC L98I HC R33K (antibody, V domains shown) VH: EEQLVESGGGLVKPGGSLRLSCAASGFSFSDCKMYWLRQAPGKGLEWIGVISVKSENYGANYAESVRGRFTISRDDSKNTVYLQMNSLKTEDTAVYYCSASYYRYDVGAWFAYWGQGTLVTVSS VL: DIVMTQSPDSLAVSLGERATINCRASKSVSTSGYSYIYWYQQKPGQPPKLLIYLASILESGVPDRFSGSGSGTDFTLTISSLQAEDVAVYYCQHSREIPWTFGQGTKVEIKR"
33.1%,25.5%,19.5%,26%,"LC master HC A63G (antibody, V domains shown) VH: EEQLVESGGGLVKPGGSLRLSCAASGFSFSDCRMYWLRQAPGKGLEWIGVISVKSENYGANYGESVRGRFTISRDDSKNTVYLQMNSLKTEDTAVYYCSASYYRYDVGAWFAYWGQGTLVTVSS VL: DIVMTQSPDSLAVSLGERATINCRASKSVSTSGYSYIYWYQQKPGQPPKLLIYLASILESGVPDRFSGSGSGTDFTLTISSLQAEDVAVYYCQHSRELPWTFGQGTKVEIKR"
6.5%,7.9%,9%,7.8%,"LC G33A HC R33K (antibody, V domains shown) VH: EEQLVESGGGLVKPGGSLRLSCAASGFSFSDCKMYWLRQAPGKGLEWIGVISVKSENYGANYAESVRGRFTISRDDSKNTVYLQMNSLKTEDTAVYYCSASYYRYDVGAWFAYWGQGTLVTVSS VL: DIVMTQSPDSLAVSLGERATINCRASKSVSTSAYSYIYWYQQKPGQPPKLLIYLASILESGVPDRFSGSGSGTDFTLTISSLQAEDVAVYYCQHSRELPWTFGQGTKVEIKR"
3.1%,-3.6%,0%,-0.2%,"LC master HC S101T (antibody, V domains shown) VH: EEQLVESGGGLVKPGGSLRLSCAASGFSFSDCRMYWLRQAPGKGLEWIGVISVKSENYGANYAESVRGRFTISRDDSKNTVYLQMNSLKTEDTAVYYCSATYYRYDVGAWFAYWGQGTLVTVSS VL: DIVMTQSPDSLAVSLGERATINCRASKSVSTSGYSYIYWYQQKPGQPPKLLIYLASILESGVPDRFSGSGSGTDFTLTISSLQAEDVAVYYCQHSRELPWTFGQGTKVEIKR"
19.8%,18.8%,15%,17.9%,"LC master HC R33K (antibody, V domains shown) VH: EEQLVESGGGLVKPGGSLRLSCAASGFSFSDCKMYWLRQAPGKGLEWIGVISVKSENYGANYAESVRGRFTISRDDSKNTVYLQMNSLKTEDTAVYYCSASYYRYDVGAWFAYWGQGTLVTVSS VL: DIVMTQSPDSLAVSLGERATINCRASKSVSTSGYSYIYWYQQKPGQPPKLLIYLASILESGVPDRFSGSGSGTDFTLTISSLQAEDVAVYYCQHSRELPWTFGQGTKVEIKR"

# Continued, binder first:
Binder,% Inh1,% Inh2,% Inh3,Avg. % inhibition
"BT61 Lot 52690 (antibody, human IgG1, kappa, V domains shown) VH: EEQLVESGGGLVKPGGSLRLSCAASGFSFSDCRMYWLRQAPGKGLEWIGVISVKSENYGANYAESVRGRFTISRDDSKNTVYLQMNSLKTEDTAVYYCSASYYRYDVGAWFAYWGQGTLVTVSS VL: DIVMTQSPDSLAVSLGERATINCRASKSVSTSGYSYIYWYQQKPGQPPKLLIYLASILESGVPDRFSGSGSGTDFTLTISSLQAEDVAVYYCQHSRELPWTFGQGTKVEIKR",26.7%,24.1%,27.8%,26.2%
"LC master HC R33K-A63G (antibody, V domains shown) VH: EEQLVESGGGLVKPGGSLRLSCAASGFSFSDCKMYWLRQAPGKGLEWIGVISVKSENYGANYGESVRGRFTISRDDSKNTVYLQMNSLKTEDTAVYYCSASYYRYDVGAWFAYWGQGTLVTVSS VL: DIVMTQSPDSLAVSLGERATINCRASKSVSTSGYSYIYWYQQKPGQPPKLLIYLASILESGVPDRFSGSGSGTDFTLTISSLQAEDVAVYYCQHSRELPWTFGQGTKVEIKR",15.7%,21.5%,21.9%,19.7%
"LC master HC master (antibody, human IgG1, kappa, V domains shown) VH: EEQLVESGGGLVKPGGSLRLSCAASGFSFSDCRMYWLRQAPGKGLEWIGVISVKSENYGANYAESVRGRFTISRDDSKNTVYLQMNSLKTEDTAVYYCSASYYRYDVGAWFAYWGQGTLVTVSS VL: DIVMTQSPDSLAVSLGERATINCRASKSVSTSGYSYIYWYQQKPGQPPKLLIYLASILESGVPDRFSGSGSGTDFTLTISSLQAEDVAVYYCQHSRELPWTFGQGTKVEIKR",,25.4%,25.9%,26.3%
"HC master LC L98I (antibody, V domains shown) VH: EEQLVESGGGLVKPGGSLRLSCAASGFSFSDCRMYWLRQAPGKGLEWIGVISVKSENYGANYAESVRGRFTISRDDSKNTVYLQMNSLKTEDTAVYYCSASYYRYDVGAWFAYWGQGTLVTVSS VL: DIVMTQSPDSLAVSLGERATINCRASKSVSTSGYSYIYWYQQKPGQPPKLLIYLASILESGVPDRFSGSGSGTDFTLTISSLQAEDVAVYYCQHSREIPWTFGQGTKVEIKR",12.2%,8.4%,18.2%,12.9%
"LC master HC Y105W (antibody, V domains shown) VH: EEQLVESGGGLVKPGGSLRLSCAASGFSFSDCRMYWLRQAPGKGLEWIGVISVKSENYGANYAESVRGRFTISRDDSKNTVYLQMNSLKTEDTAVYYCSASYYRWDVGAWFAYWGQGTLVTVSS VL: DIVMTQSPDSLAVSLGERATINCRASKSVSTSGYSYIYWYQQKPGQPPKLLIYLASILESGVPDRFSGSGSGTDFTLTISSLQAEDVAVYYCQHSRELPWTFGQGTKVEIKR",5.3%,2%,7%,4.8%

# From patent US20130004513A1 (published 2013)
